B1: corin: N567Q (protein)
parent chain: MKQSPALAPEERCRRAGSPKPVLRADDNNMGNGCSQKLATANLLRFLLLVLIPCICALVLLLVILLSYVGTLQKVYFKSNGSEPLVTDGEIQGSDVILTNTIYNQSTVVSTAHPDQHVPAWTTDASLPGDQSHRNTSACMNITHSQCQMLPYHATLTPLLSVVRNMEMEKFLKFFTYLHRLSCYQHIMLFGCTLAFPECIIDGDDSHGLLPCRSFCEAAKEGCESVLGMVNYSWPDFLRCSQFRNQTESSNVSRICFSPQQENGKQLLCGRGENFLCASGICIPGKLQCNGYNDCDDWSDEAHCNCSENLFHCHTGKCLNYSLVCDGYDDCGDLSDEQNCDCNPTTEHRCGDGRCIAMEWVCDGDHDCVDKSDEVNCSCHSQGLVECRNGQCIPSTFQCDGDEDCKDGSDEENCSVIQTSCQEGDQRCLYNPCLDSCGGSSLCDPNNSLNNCSQCEPITLELCMNLPYNSTSYPNYFGHRTQKEASISWESSLFPALVQTNCYKYLMFFSCTILVPKCDVNTGEHIPPCRALCEHSKERCESVLGIVGLQWPEDTDCSQFPEENSDNQTCLMPDEYVEECSPSHFKCRSGQCVLASRRCDGQADCDDDSDEENCGCKERDLWECPSNKQCLKHTVICDGFPDCPDYMDEKNCSFCQDDELECANHACVSRDLWCDGEADCSDSSDEWDCVTLSINVNSSSFLMVHRAATEHHVCADGWQEILSQLACKQMGLGEPSVTKLIQEQEKEPRWLTLHSNWESLNGTTLHELLVNGQSCESRSKISLLCTKQDCGRRPAARMNKRILGGRTSRPGRWPWQCSLQSEPSGHICGCVLIAKKWVLTVAHCFEGRENAAVWKVVLGINNLDHPSVFMQTRFVKTIILHPRYSRAVVDYDISIVELSEDISETGYVRPVCLPNPEQWLEPDTYCYITGWGHMGNKMPFKLQEGEVRIISLEHCQSYFDMKTITTRMICAGYESGTVDSCMGDSGGPLVCEKPGGRWTLFGLTSWGSVCFSKVLGPGVYSNVSYFVEWIKRQIYIQTFLLN
B2: corin: N761Q (protein)
parent chain: B1 parent chain
B3: corin: N697Q (protein)
parent chain: B1 parent chain
B4: corin: N1022Q (protein)
parent chain: B1 parent chain
B5: corin: N651Q (protein)
parent chain: B1 parent chain

Test: immunostaining, confocal microscopy, FBL/FTotal ratio in polarized MDCK cells
Conditions: glycan lost; control: corin WT

Protein | localisation_or_trafficking
B1 | no change
B2 | no change
B3 | no change
B4 | no change
B5 | no change
